Laboratory results taken from patent publication US8450284B2, “Coiled-coil lipopeptide helical bundles and synthetic virus-like particles” (Universitaet Zuerich, priority 2006, dated 2013).
“And” between values parts separate entries of the source, which are not always exact repeats. Equal entries are not always repeated. Ends that are not written are not given here.

What was measured:
[1] = test system: Rabbits; assay: Immunization of rabbits, ELISA cross-reaction with the same antigen attached to a different LBB (Table 2); type: in vivo, rabbit; conditions: for Endpoint titers (log10) 3°: after second booster
Description: (§1) Rabbits (groups of two) were each immunized with 150 μg of one conjugate, reconstituted and equilibrated for at least 1 h at r.t. in either 400 μl PBS (10 mM sodium phosphate, 154 mM NaCl, pH 7.2), or with Freund's adjuvant (Freund's complete adjuvant (FA) for primary and Freund's incomplete adjuvant (FIA) for booster immunizations). Immunizations were performed on days 0, 28 and 56. Sera were collected on days 14, 38 and 66. The sera were analyzed by enzyme-linked immunosorbent assay (ELISA), to detect antibodies that bind to the conjugates used for immunizations.
The specificity of each hapten specific immune response was also analyzed by ELISA (Table 2). Here the ability of antibodies elicited by each conjugate to cross-react with the same antigen attached to a different LBB was measured.
(§2) ELISA microtiter-plates (Nunc Immunoplates Polysorb F96) were coated overnight with a 5 μg/ml solution of each antigen in PBS. The wells were then washed with PBS containing 0.05% Tween 20 (PBST) and blocked with PBS containing 5% skimmed milk powder for 1 h at r.t. After blocking, the wells were washed three times with PBST and incubated with serial dilutions of rabbit serum in PBS containing 0.05% Tween 20 and 0.5% skimmed milk powder (MPBST) for 2.5 h at r.t., followed by three washes with PBST. The plates were then incubated with alkaline phosphatase-conjugated mouse anti-rabbit IgG antibody (Sigma), diluted 1:20000 in MPBST for 1 h at r.t., washed again three times with PBST and incubated in the dark with a 1 mg/ml solution of p-nitrophenyl phosphate (Sigma) in substrate buffer (50 mM sodium carbonate buffer, 1 mM MgCl2, pH 9.6) at r.t. The absorbance was read after an appropriate time at 405 nm using a Bio-Rad Model 3550 microplate reader.

[2] = test system: Rabbits; assay: Immunization of rabbits, ELISA for antibodies binding the conjugate used for immunization (Table 1); type: in vivo, rabbit; conditions: 150 μg conjugate, ELISA on the immunogen; for log10 (Endpoint titers) 2°: after first booster (serum day 38); for log10 (Endpoint titers) 3°: after second booster (serum day 66), rabbits in groups of two, each group given one conjugate
Description: as §1, §2

[3] = Far UV circular dichroism spectroscopy (CONTIN analysis, thermal denaturation); type: physicochemical
Description: Far ultraviolet circular dichroism (CD) spectra were measured at r.t. using a Jasco J-715 spectropolarimeter and a 0.1 cm path length quartz cell. Peptide 5 solution (50 μM) and lipopeptide 4 solution (35.7 μM) were prepared in TRIS buffer (10 mM TrisHCl, 90 mM NaCl, pH 7.4) and concentrations were determined by phosphate or amino acid analysis, as appropriate. Scan speeds of 10-100 nm/min, 1-2 second response times and a 1 nm spectral bandwidth were employed and spectra were collected at a minimum resolution of 0.5 nm. After subtraction of the blank, the spectral values were reported as mean residue ellipticity [deg. cm^2/dmol] and the lipid moiety was ignored when calculating the mean residue molecular weight.
CD spectra of low concentration samples of lipopeptide 4 (2-40 μM) were measured at 20° C. with a Jasco J-810 spectropolarimeter using a 1 cm path length quartz cell. Lipopeptide solutions were prepared in PBS (10 mM Na2HPO4, 90 mM NaCl, pH 7.4) and concentrations were determined by phosphate analysis. Scan speeds of 10 nm/min, 4 second response time and a 2 nm spectral bandwidth were employed and spectra were collected at a minimum resolution of 0.5 nm. Data were elaborated as described above.

[4] = far UV CD at room temperature, FIG. 6

With “LBB6-LY-CH: conjugate of lipopeptide 6 with LY-CH-HMB (GGAVSKVLHLEGEVNKIKSALLSTNKAVVSLSNGVSVLTSKVLDLKNYIDKQC; also: conjugate of lipopeptide 6 with LY-CH-HMB)” the “Endpoint titers (log10) 3°” value ([1]; ELISA antigen LBB7-LY-CH) was 5.41 and 5.71, the “log10 (Endpoint titers) 2°” value ([2]; two rabbits (a, b)) was 5.11 and the “log10 (Endpoint titers) 1°” value ([2]; after primary immunization (serum day 14), two rabbits (a, b)) was 3.90 and 4.20.

In the case of “LBB7-LY-CH: conjugate of lipopeptide 7 with LY-CH-HMB (SGIKKEIEAIKKEQEAIKKKIEAIERMLQLTVWGIKQLQARVLAVERYLGDCG; also: conjugate of lipopeptide 7 with LY-CH-HMB)”, the “Endpoint titers (log10) 2°” value ([1]; ELISA antigen LBB6-LY-CH, after first booster) is reported as 5.01 and 4.71, the “Endpoint titers (log10) 3°” value ([1]; ELISA antigen LBB6-LY-CH) is reported as 5.01 and the “log10 (Endpoint titers) 3°” value [2] is reported as 4.41 and 4.11.

With “peptide 5: same peptide sequence as lipopeptide 4 but lacks the phospholipid and linker (GGAVSKVLHLEGEVNKIKSALLSTNKAVVSLSNGVSVLTSKVLDLKNYIDKQ; derived from RSV F glycoprotein)” the “aperiodic structure content (CONTIN)” value [3, 4] was 42%, the “β-sheet content (CONTIN)” value [3, 4] was 25% and the “α-helix content (CONTIN)” value ([3]; far UV CD at room temperature, pH 7.4, FIG. 6) was 33%. The “mid point of thermal denaturation transition” value ([3]; peptide concentration 35 μM) was about 40 °C.

B1: LBB7-12: conjugate of lipopeptide 7 with peptide 12 (conjugate)
chain: SGIKKEIEAIKKEQEAIKKKIEAIERMLQLTVWGIKQLQARVLAVERYLGDCG
peptide: NCRKSIHIGPGRAFYTTGCG
modifications: cyclised or stapled
In the case of B1, the “Endpoint titers (log10) 1°” value ([1]; ELISA antigen LBB6-12, after primary immunization) is reported as under 1.70, the “log10 (Endpoint titers) 2°” value ([2]; two rabbits (a, b)) is reported as 4.41 and 4.11 and the “log10 (Endpoint titers) 3°” value [2] is reported as 4.41 and 4.11.

B2: LBB6-12: conjugate of lipopeptide 6 with peptide 12 (conjugate)
chain: GGAVSKVLHLEGEVNKIKSALLSTNKAVVSLSNGVSVLTSKVLDLKNYIDKQC
peptide: NCRKSIHIGPGRAFYTTGCG
modifications: cyclised or stapled
For B2, the “log10 (Endpoint titers) 3°” value [2] was 5.01 and 4.71.
